The source of these data is patent publication US20060068468A1 (ACCELERON PHARMA, published 2006).

In assay [1] the target is T1, Activin A (UniProt P08476 311-426).
T1 construct: also called ActA
T1 sequence (looked up): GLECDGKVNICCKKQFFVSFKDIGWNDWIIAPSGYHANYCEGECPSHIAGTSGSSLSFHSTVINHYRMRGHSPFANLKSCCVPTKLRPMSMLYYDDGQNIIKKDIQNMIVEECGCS
In words: BiaCore (SPR); ligand amine-coupled to CM5 chip, ActRIIB-Fc injected. How it is done: (§1) GDF-11 or Activin A (“ActA”) were immobilized on a BiaCore CM5 chip using standard amine coupling procedure. The ActRIIB-Fc mutant or wild-type protein was loaded onto the system, and binding was measured.
(In general: In SPR one partner is held on a chip, and binding of the other changes the refractive index at the surface.)

Assay [2] has as its target T2, GDF-11 (UniProt O95390 299-407).
T2 construct: also called Growth and Differentiation Factor-11; BMP11
T2 sequence (looked up): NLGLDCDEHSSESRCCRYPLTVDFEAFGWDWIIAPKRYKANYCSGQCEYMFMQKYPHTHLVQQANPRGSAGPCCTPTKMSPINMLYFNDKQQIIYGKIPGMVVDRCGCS
The description is as above. How it is done:
as §1

The target of assay [3] is T2, GDF-11. Kind of assay: BiaCore, ligand immobilized on CM5 chip. The protocol: as §1
Assay [4] addresses T1, Activin A. Kind of assay: BiaCore, ligand immobilized on CM5 chip. The protocol: as §1

B1: background ActRIIB-Fc fusion, WT (64A) (Fc fusion)
chain: SGRGEAETRECIYYNANWELERTNQSGLERCEGEQDKRLHCYASWANSSGTIELVKKGCWLDDFNCYDRQECVATEENPQVYFCCCEGNFCNERFTHLPEAGGGTHTCPPCPAPELLGGPSVFLFPPKPKDTLMISRTPEVTCVVVDVSHEDPEVKFNWYVDGVEVHNAKTKPREEQYNSTYRVVSVLTVLHQDWLNGKEYKCKVSNKALPVPIEKTISKAKGQPREPQVYTLPPSREEMTKNQVSLTCLVKGFYPSDIAVEWESNGQPENNYKTTPPVLDSDGSFFLYSKLTVDKSRWQQGNVFSCSVMHEALHNHYTQKSLSLSPGK
notes: Made in HEK293T or CHO cells and purified on protein A; also called wild-type (background A64) ActRIIB-Fc; background A64 construct
Usually Kd stands for the free concentration of one partner at which half of the binding sites on the other are occupied at equilibrium, for simple one-to-one binding. Turning to B1, the Kd in the assay with Activin A [1] turned out to be 180 nM; with GDF-11 [2], 260 nM.

B2: ActRIIB-Fc D54A (Fc fusion)
chain: SGRGEAETRECIYYNANWELERTNQSGLERCEGEQAKRLHCYASWANSSGTIELVKKGCWLDDFNCYDRQECVATEENPQVYFCCCEGNFCNERFTHLPEAGGGTHTCPPCPAPELLGGPSVFLFPPKPKDTLMISRTPEVTCVVVDVSHEDPEVKFNWYVDGVEVHNAKTKPREEQYNSTYRVVSVLTVLHQDWLNGKEYKCKVSNKALPVPIEKTISKAKGQPREPQVYTLPPSREEMTKNQVSLTCLVKGFYPSDIAVEWESNGQPENNYKTTPPVLDSDGSFFLYSKLTVDKSRWQQGNVFSCSVMHEALHNHYTQKSLSLSPGK
notes: Mutation in the background ActRIIB-Fc
Regarding B2, the results for the binding result with Activin A [1] and with GDF-11 [3] were “binds” and “no binding”, respectively.

B3: ActRIIB-Fc K74F (Fc fusion)
chain: SGRGEAETRECIYYNANWELERTNQSGLERCEGEQDKRLHCYASWANSSGTIELVFKGCWLDDFNCYDRQECVATEENPQVYFCCCEGNFCNERFTHLPEAGGGTHTCPPCPAPELLGGPSVFLFPPKPKDTLMISRTPEVTCVVVDVSHEDPEVKFNWYVDGVEVHNAKTKPREEQYNSTYRVVSVLTVLHQDWLNGKEYKCKVSNKALPVPIEKTISKAKGQPREPQVYTLPPSREEMTKNQVSLTCLVKGFYPSDIAVEWESNGQPENNYKTTPPVLDSDGSFFLYSKLTVDKSRWQQGNVFSCSVMHEALHNHYTQKSLSLSPGK
notes: as for B2
Take B3: the binding result with GDF-11 [2] is on record as “binds”; in the assay with Activin A [4], “no binding”.

B4: ActRIIB-Fc K74A (Fc fusion)
chain: SGRGEAETRECIYYNANWELERTNQSGLERCEGEQDKRLHCYASWANSSGTIELVAKGCWLDDFNCYDRQECVATEENPQVYFCCCEGNFCNERFTHLPEAGGGTHTCPPCPAPELLGGPSVFLFPPKPKDTLMISRTPEVTCVVVDVSHEDPEVKFNWYVDGVEVHNAKTKPREEQYNSTYRVVSVLTVLHQDWLNGKEYKCKVSNKALPVPIEKTISKAKGQPREPQVYTLPPSREEMTKNQVSLTCLVKGFYPSDIAVEWESNGQPENNYKTTPPVLDSDGSFFLYSKLTVDKSRWQQGNVFSCSVMHEALHNHYTQKSLSLSPGK
notes: as for B2
Turning to B4, the Kd came out at 4.35 nM in the assay with Activin A [1] and 5.3 nM in the assay with GDF-11 [2].

B5: ActRIIB-Fc L79A (Fc fusion)
chain: SGRGEAETRECIYYNANWELERTNQSGLERCEGEQDKRLHCYASWANSSGTIELVKKGCWADDFNCYDRQECVATEENPQVYFCCCEGNFCNERFTHLPEAGGGTHTCPPCPAPELLGGPSVFLFPPKPKDTLMISRTPEVTCVVVDVSHEDPEVKFNWYVDGVEVHNAKTKPREEQYNSTYRVVSVLTVLHQDWLNGKEYKCKVSNKALPVPIEKTISKAKGQPREPQVYTLPPSREEMTKNQVSLTCLVKGFYPSDIAVEWESNGQPENNYKTTPPVLDSDGSFFLYSKLTVDKSRWQQGNVFSCSVMHEALHNHYTQKSLSLSPGK
notes: as for B2
Regarding B5, the binding result with Activin A [1] was “binds”; with GDF-11 [3], “no binding”.

B6: ActRIIB-Fc K74Y (Fc fusion)
chain: SGRGEAETRECIYYNANWELERTNQSGLERCEGEQDKRLHCYASWANSSGTIELVYKGCWLDDFNCYDRQECVATEENPQVYFCCCEGNFCNERFTHLPEAGGGTHTCPPCPAPELLGGPSVFLFPPKPKDTLMISRTPEVTCVVVDVSHEDPEVKFNWYVDGVEVHNAKTKPREEQYNSTYRVVSVLTVLHQDWLNGKEYKCKVSNKALPVPIEKTISKAKGQPREPQVYTLPPSREEMTKNQVSLTCLVKGFYPSDIAVEWESNGQPENNYKTTPPVLDSDGSFFLYSKLTVDKSRWQQGNVFSCSVMHEALHNHYTQKSLSLSPGK
notes: as for B2
For the molecule B6, the binding result in the assay with GDF-11 [2] is “binds”; in the assay with Activin A [4], “no binding”.

B7: ActRIIB-Fc K74I (Fc fusion)
chain: SGRGEAETRECIYYNANWELERTNQSGLERCEGEQDKRLHCYASWANSSGTIELVIKGCWLDDFNCYDRQECVATEENPQVYFCCCEGNFCNERFTHLPEAGGGTHTCPPCPAPELLGGPSVFLFPPKPKDTLMISRTPEVTCVVVDVSHEDPEVKFNWYVDGVEVHNAKTKPREEQYNSTYRVVSVLTVLHQDWLNGKEYKCKVSNKALPVPIEKTISKAKGQPREPQVYTLPPSREEMTKNQVSLTCLVKGFYPSDIAVEWESNGQPENNYKTTPPVLDSDGSFFLYSKLTVDKSRWQQGNVFSCSVMHEALHNHYTQKSLSLSPGK
notes: as for B2
In the case of B7, the binding result in the assay with GDF-11 [2] is “binds”; in the assay with Activin A [4], “no binding”.

B8: ActRIIB-Fc R40A (Fc fusion)
chain: SGRGEAETRECIYYNANWELEATNQSGLERCEGEQDKRLHCYASWANSSGTIELVKKGCWLDDFNCYDRQECVATEENPQVYFCCCEGNFCNERFTHLPEAGGGTHTCPPCPAPELLGGPSVFLFPPKPKDTLMISRTPEVTCVVVDVSHEDPEVKFNWYVDGVEVHNAKTKPREEQYNSTYRVVSVLTVLHQDWLNGKEYKCKVSNKALPVPIEKTISKAKGQPREPQVYTLPPSREEMTKNQVSLTCLVKGFYPSDIAVEWESNGQPENNYKTTPPVLDSDGSFFLYSKLTVDKSRWQQGNVFSCSVMHEALHNHYTQKSLSLSPGK
notes: as for B2
As to B8, the binding result in the assay with Activin A [1] and with GDF-11 [2] was “binds” throughout.

B9: ActRIIB-Fc +15tail (Fc fusion)
chain: SGRGEAETRECIYYNANWELERTNQSGLERCEGEQDKRLHCYASWANSSGTIELVKKGCWLDDFNCYDRQECVATEENPQVYFCCCEGNFCNERFTHLPEAGGPEVTYEPPPTAPTGGGTHTCPPCPAPELLGGPSVFLFPPKPKDTLMISRTPEVTCVVVDVSHEDPEVKFNWYVDGVEVHNAKTKPREEQYNSTYRVVSVLTVLHQDWLNGKEYKCKVSNKALPVPIEKTISKAKGQPREPQVYTLPPSREEMTKNQVSLTCLVKGFYPSDIAVEWESNGQPENNYKTTPPVLDSDGSFFLYSKLTVDKSRWQQGNVFSCSVMHEALHNHYTQKSLSLSPGK
notes: also called ActRIIB-Fc with the C-terminal 15 amino acids of the extracellular domain
As to B9, the Kd is around 26 nM in the assay with Activin A [1] and 19 nM in the assay with GDF-11 [2].
